Target: Cys32 (UniProt position 32, FSATWCGPCKM)
Conditions: Reduced (free thiol) form is presumed; not explicitly stated for the pKa determination.

Thioredoxin-1 (native recombinant human TRX, rhTRX) (Homo sapiens)
pKa: 6.3
